Data on one molecule can be found in patent US20190359674A1.

This assay deals with T1, recombinant human MAS1 receptor (human), P04201.
T1 chain: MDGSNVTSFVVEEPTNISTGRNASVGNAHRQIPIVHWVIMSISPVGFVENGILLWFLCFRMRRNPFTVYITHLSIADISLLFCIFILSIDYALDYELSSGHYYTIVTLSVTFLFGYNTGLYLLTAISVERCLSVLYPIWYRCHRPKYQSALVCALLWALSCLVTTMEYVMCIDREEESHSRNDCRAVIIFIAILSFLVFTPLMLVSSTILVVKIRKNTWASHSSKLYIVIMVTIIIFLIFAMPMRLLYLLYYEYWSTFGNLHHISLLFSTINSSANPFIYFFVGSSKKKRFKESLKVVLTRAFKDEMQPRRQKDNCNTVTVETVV
The assay can be described thus: cell-based or functional assay.

Positions of bridges follow the written chain, without caps; N, C: chain ends. Non-standard residues stand in square brackets, D forms with d. Dap = NC[C@H](N)C(=O)O

B1: cyclotide MCo-AT1-7 (designed binder)
chain: GGVCPKILQRCRRDSDCPGACICRGNGYCGSG[Dap]RVYIHE-OH
modifications: disulfide 11-23, 17-29, 4-21; lactam N-39 (inferred); also: Gly32 joined to Dap33 β-amino group by isopeptide bond, Dap33 α-amino group free
B1: the activity in the MAS1 activation (NO release) assay relative to peptide AT1-7, at 10 nM (% of AT1-7 activity) was determined as 90.
